# Reference: article PMC10733448, “An aptamer and Au/Si CCA based SERS sensor for ultra-sensitive detection of Vimentin during EMT in gastric cancer”
# Biological target: Vimentin (UniProt P08670 2-466)
# Test: SERS strand-displacement sensor (signal decrease on Vimentin addition); competes with hybridized complementary strand S3 (5-FAM); binding buffer, salt, pH and temperature not given in the material; aptamer on Au/Si CCA, complementary strand on AuNCs, 6-MCH blocking
# Settings: label: none on the aptamer; reporter 5-FAM is on the complementary strand S3; before protein addition hybridized over its 3' 18 nt to SH-S3-5-FAM on Au nanocubes
# Vimentin, sequence (P08670 2-466): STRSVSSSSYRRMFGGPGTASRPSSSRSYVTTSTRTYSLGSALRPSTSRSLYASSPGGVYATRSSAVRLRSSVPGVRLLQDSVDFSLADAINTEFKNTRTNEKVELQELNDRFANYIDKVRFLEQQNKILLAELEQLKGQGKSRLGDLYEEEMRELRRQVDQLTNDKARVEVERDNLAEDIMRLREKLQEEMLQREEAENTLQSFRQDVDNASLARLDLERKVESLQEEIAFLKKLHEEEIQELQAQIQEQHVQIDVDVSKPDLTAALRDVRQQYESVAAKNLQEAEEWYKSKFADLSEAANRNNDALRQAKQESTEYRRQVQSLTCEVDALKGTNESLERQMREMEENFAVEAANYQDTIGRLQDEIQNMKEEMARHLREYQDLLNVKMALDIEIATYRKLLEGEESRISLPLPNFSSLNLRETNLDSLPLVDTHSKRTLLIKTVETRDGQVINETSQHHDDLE
binder,measurement,value
"TAGACCCAGCTGGTCCGGAAAATAAGATGTCACGGATCCTC (ssDNA, thiol (SH) printed at 5' end) [Vimentin aptamer]",binding result,binds
